Results as given in the supplement of paper PMC11246515.
± gives the standard deviation of the averaged measurements.

Assay: total protein half-life in vivo (active degradation + dilution); higher = more stable protein
[1] = wild type E. coli NCM3722, growth: C-lim chemostat, doubling time 3 h
[2] = wild type E. coli NCM3722, growth: C-lim chemostat, doubling time 6 h
[3] = E. coli NCM3722 delta-clpP delta-lon delta-hslV, growth: N-lim chemostat, doubling time 6 h
[4] = E. coli NCM3722 delta-hslV, growth: N-lim chemostat, doubling time 6 h
[5] = E. coli NCM3722 delta-lon, growth: N-lim chemostat, doubling time 6 h
[6] = E. coli NCM3722 delta-smpB, growth: N-lim chemostat, doubling time 6 h
[7] = wild type E. coli NCM3722, growth: C-lim chemostat, doubling time 12 h
[8] = wild type E. coli NCM3722, growth: N-lim chemostat, doubling time 6 h
[9] = wild type E. coli NCM3722, growth: N-lim chemostat, doubling time 12 h
[10] = wild type E. coli NCM3722, growth: P-lim chemostat, doubling time 6 h
[11] = wild type E. coli NCM3722, growth: P-lim chemostat, doubling time 12 h
[12] = E. coli NCM3722 delta-clpP, growth: N-lim chemostat, doubling time 6 h

## MAAIAFIGLGQMGSPMASNLLQQGHQLRVFDVNAEAVRHLVDKGATPAANPAQAAKDAEFIITMLPNGDLVRNVLFGENGVCEGLSTDALVIDMSTIHPLQTDKLIADMQAKGFSMMDVPVGRTSANAITGTLLLLAGGTAEQVERATPILMAMGSELINAGGPGMGIRVKLINNYMSIALNALSAEAAVLCEALNLPFDVAVKVMSGTAAGKGHFTTSWPNKVLSGDLSPAFMIDLAHKDLGIALDVANQLHVPMPLGAASREVYSQARAAGRGRQDWSAILEQVRVSAGMTAKVKM [P0A9V8]
[1]
  total protein half-life in vivo: > 4 h
[2]
  total protein half-life in vivo: 4.77 ± 1.8 h

## MAAKDRIQAIKQMVANDKKVTVSNLSGIFQVTEETIRRDLEKLEDEGFLTRTYGGAVLNTAMLTENIHFYKRASSFYEEKQLIARKALPFIDNKTTMAADSSSTVMELLKLLQDRSGLTLLTNSAEAIHVLAQSEIKVVSTGGELNKNTLSLQGRITKEIIRRYHVDIMVMSCKGLDINSGALDSNEAEAEIKKTMIRQATEVALLVDHSKFDRKAFVQLADFSHINYIITDKSPGAEWIAFCKDNNIQLVW
[3]
  total protein half-life in vivo: 5.6 ± 0.062 h
[4]
  total protein half-life in vivo: 5.31 ± 0.24 h
[5]
  total protein half-life in vivo: 5.25 ± 1.1 h
[6]
  total protein half-life in vivo: 5.12 ± 0.069 h
[1]
  total protein half-life in vivo: 2.93 ± 0.12 h
[2]
  total protein half-life in vivo: 5.96 ± 0.83 h
[7]
  total protein half-life in vivo: 9.64 ± 0.74 h
[8]
  total protein half-life in vivo: 5.5 ± 0.2 h
[9]
  total protein half-life in vivo: 9.92 ± 1.1 h
[10]
  total protein half-life in vivo: 5.45 ± 0.52 h
[11]
  total protein half-life in vivo: 13 ± 2.9 h

## MAAQGFLLIATFLLVLMVLARPLGSGLARLINDIPLPGTTGVERVLFRALGVSDREMNWKQYLCAILGLNMLGLAVLFFMLLGQHYLPLNPQQLPGLSWDLALNTAVSFVTNTNWQSYSGETTLSYFSQMAGLTVQNFLSAASGIAVIFALIRAFTRQSMSTLGNAWVDLLRITLWVLVPVALLIALFFIQQGALQNFLPYQAVNTVEGAQQLLPMGPVASQEAIKMLGTNGGGFFNANSSHPFENPTALTNFVQMLAIFLIPTALCFAFGEVMGDRRQGRMLLWAMSVIFVICVGVVMWAEVQGNPHLLALGTDSSINMEGKESRFGVLVSSLFAVVTTAASCGAVIAMHDSFTALGGMVPMWLMQIGEVVFGGVGSGLYGMMLFVLLAVFIAGLMIGRTPEYLGKKIDVREMKLTALAILVTPTLVLMGAALAMMTDAGRSAMLNPGPHGFSEVLYAVSSAANNNGSAFAGLSANSPFWNCLLAFCMFVGRFGVIIPVMAIAGSLVSKKSQAASSGTLPTHGPLFVGLLIGTVLLVGALTFIPALALGPVAEYLS
[10]
  total protein half-life in vivo: 5.85 h

## MAASTFFIPSVNVIGADSLTDAMNMMADYGFTRTLIVTDNMLTKLGMAGDVQKALEERNIFSVIYDGTQPNPTTENVAAGLKLLKENNCDSVISLGGGSPHDCAKGIALVAANGGDIRDYEGVDRSAKPQLPMIAINTTAGTASEMTRFCIITDEARHIKMAIVDKHVTPLLSVNDSSLMIGMPKSLTAATGMDALTHAIEAYVSIAATPITDACALKAVTMIAENLPLAVEDGSNAKAREAMAYAQFLAGMAFNNASLGYVHAMAHQLGGFYNLPHGVCNAVLLPHVQVFNSKVAAARLRDCAAAMGVNVTGKNDAEGAEACINAIRELAKKVDIPAGLRDLNVKEEDFAVLATNALKDACGFTNPIQATHEEIVAIYRAAM
[10]
  total protein half-life in vivo: 4.98 h
[11]
  total protein half-life in vivo: 9.25 ± 2.1 h

## MADEIDAMALYRAWQQLDNGSCAQIRRVSEPDELRDIPAFYRLVQPFGWENPRHQQALLRMVFCLSAGKNVIRHQDKKSEQTTGISLGRALANSGRINERRIFQLIRADRTADMVQLRRLLTHAEPVLDWPLMARMLTWWGKRERQQLLEDFVLTTNKNA
[3]
  total protein half-life in vivo: 5.62 ± 1.1 h

## MADNKPELQRGLEARHIELIALGGTIGVGLFMGAASTLKWAGPSVLLAYIIAGLFVFFIMRSMGEMLFLEPVTGSFAVYAHRYMSPFFGYLTAWSYWFMWMAVGISEITAIGVYVQFWFPEMAQWIPALIAVALVALANLAAVRLYGEIEFWFAMIKVTTIIVMIVIGLGVIFFGFGNGGQSIGFSNLTEHGGFFAGGWKGFLTALCIVVASYQGVELIGITAGEAKNPQVTLRSAVGKVLWRILIFYVGAIFVIVTIFPWNEIGSNGSPFVLTFAKIGITAAAGIINFVVLTAALSGCNSGMYSCGRMLYALAKNRQLPAAMAKVSRHGVPVAGVAVSIAILLIGSCLNYIIPNPQRVFVYVYSASVLPGMVPWFVILISQLRFRRAHKAAIASHPFRSILFPWANYVTMAFLICVLIGMYFNEDTRMSLFVGIIFMLAVTAIYKVFGLNRHGKAHKLEE
[3]
  total protein half-life in vivo: 6.95 h
[4]
  total protein half-life in vivo: 6.01 ± 0.26 h
[5]
  total protein half-life in vivo: 5.41 ± 0.71 h
[6]
  total protein half-life in vivo: 5.99 ± 1.1 h
[2]
  total protein half-life in vivo: 6.82 ± 0.17 h
[7]
  total protein half-life in vivo: 10.7 h
[8]
  total protein half-life in vivo: 5.01 h
[9]
  total protein half-life in vivo: 11.7 h
[10]
  total protein half-life in vivo: > 8 h
[11]
  total protein half-life in vivo: 12.7 ± 2.9 h

## MADTRPERRFTRIDRLPPYVFNITAELKMAARRRGEDIIDFSMGNPDGATPPHIVEKLCTVAQRPDTHGYSTSRGIPRLRRAISRWYQDRYDVEIDPESEAIVTIGSKEGLAHLMLATLDHGDTVLVPNPSYPIHIYGAVIAGAQVRSVPLVEGVDFFNELERAIRESYPKPKMMILGFPSNPTAQCVELEFFEKVVALAKRYDVLVVHDLAYADIVYDGWKAPSIMQVPGARDVAVEFFTLSKSYNMAGWRIGFMVGNKTLVSALARIKSYHDYGTFTPLQVAAIAALEGDQQCVRDIAEQYKRRRDVLVKGLHEAGWMVEMPKASMYVWAKIPEPYAAMGSLEFAKKLLNEAKVCVSPGIGFGDYGDTHVRFALIENRDRIRQAIRGIKAMFRADGLLPASSKHIHENAE
[3]
  total protein half-life in vivo: 4.48 ± 0.37 h
[12]
  total protein half-life in vivo: 4.17 ± 0.25 h
[4]
  total protein half-life in vivo: 2.21 ± 0.2 h
[5]
  total protein half-life in vivo: 2.27 ± 0.23 h
[6]
  total protein half-life in vivo: 2.22 ± 0.062 h
[1]
  total protein half-life in vivo: 2.43 ± 0.15 h
[2]
  total protein half-life in vivo: 3.92 ± 0.59 h
[7]
  total protein half-life in vivo: 7.44 ± 1.7 h
[8]
  total protein half-life in vivo: 2.28 ± 0.1 h
[9]
  total protein half-life in vivo: 2.92 ± 0.049 h
[10]
  total protein half-life in vivo: 4.75 ± 0.82 h
[11]
  total protein half-life in vivo: 7.31 ± 0.3 h

## MAEAQNDPLLPGYSFNAHLVAGLTPIEANGYLDFFIDRPLGMKGYILNLTIRGQGVVKNQGREFVCRPGDILLFPPGEIHHYGRHPEAREWYHQWVYFRPRAYWHEWLNWPSIFANTGFFRPDEAHQPHFSDLFGQIINAGQGEGRYSELLAINLLEQLLLRRMEAINESLHPPMDNRVREACQYISDHLADSNFDIASVAQHVCLSPSRLSHLFRQQLGISVLSWREDQRISQAKLLLSTTRMPIATVGRNVGFDDQLYFSRVFKKCTGASPSEFRAGCEEKVNDVAVKLS [P0A9E0]
[3]
  total protein half-life in vivo: 5.38 ± 0.2 h
[12]
  total protein half-life in vivo: 1.95 h
[4]
  total protein half-life in vivo: 1.21 ± 0.4 h
[5]
  total protein half-life in vivo: 1.26 ± 0.079 h
[6]
  total protein half-life in vivo: 0.763 ± 0.18 h
[1]
  total protein half-life in vivo: 0.747 ± 0.18 h
[2]
  total protein half-life in vivo: 1.42 ± 0.059 h
[7]
  total protein half-life in vivo: 1.81 ± 0.044 h
[8]
  total protein half-life in vivo: 1.08 ± 0.057 h
[9]
  total protein half-life in vivo: 1.34 ± 0.25 h
[11]
  total protein half-life in vivo: 1.12 h

## MAEETIFSKIIRREIPSDIVYQDDLVTAFRDISPQAPTHILIIPNILIPTVNDVSAEHEQALGRMITVAAKIAEQEGIAEDGYRLIMNTNRHGGQEVYHIHMHLLGGRPLGPMLAHKGL [P0ACE7]
[12]
  total protein half-life in vivo: 5.01 ± 0.59 h
[4]
  total protein half-life in vivo: 4.88 ± 0.38 h
[6]
  total protein half-life in vivo: 4.71 ± 0.36 h
[1]
  total protein half-life in vivo: 3.32 ± 0.21 h
[2]
  total protein half-life in vivo: 5.24 ± 0.32 h
[7]
  total protein half-life in vivo: 8.75 ± 1.9 h
[8]
  total protein half-life in vivo: 4.31 ± 0.051 h
[9]
  total protein half-life in vivo: 7.64 ± 0.66 h
[10]
  total protein half-life in vivo: 5.65 ± 0.32 h
[11]
  total protein half-life in vivo: 12 ± 1.3 h
